Reference: publication PMC6160412 (2018)

How the values were obtained:
Test in all cases: SPR
[1] = target: human LRRTM2 LRR domain, F357Y mutant (human, UniProt O43300 34-371, F357Y)
[2] = target: human LRRTM2 LRR domain, D352A mutant (human, UniProt O43300 34-371, D352A)
Neurexin-1β (+S4) = Neurexin-1β (+S4) (Mus musculus, UniProt P0DI97)
Neurexin-1β (+S4), sequence (P0DI97 47-392): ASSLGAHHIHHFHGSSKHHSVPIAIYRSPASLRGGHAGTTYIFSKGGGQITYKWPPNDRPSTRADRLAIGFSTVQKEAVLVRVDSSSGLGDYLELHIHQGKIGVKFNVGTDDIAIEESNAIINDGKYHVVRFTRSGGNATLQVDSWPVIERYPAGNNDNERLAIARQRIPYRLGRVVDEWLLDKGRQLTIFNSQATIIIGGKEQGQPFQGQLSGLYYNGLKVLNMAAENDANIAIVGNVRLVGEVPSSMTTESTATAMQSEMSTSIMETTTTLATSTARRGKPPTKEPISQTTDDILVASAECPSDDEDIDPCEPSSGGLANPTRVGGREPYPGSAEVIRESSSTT

| Kd [1] | Kd [2] | Kd (Neurexin-1β (+S4)) | Binder |
| --- | --- | --- | --- |
| 19.3 µM | > 34 µM |  | human Nrxn1β LNS domain (–S4), wild type (domain or fragment) not shown |
|  |  | > 80 µM | LRRTM2 (protein) CPPKCRCEKLLFYCDSQGFHSVPNATDKGSLGLSLRHNHITALERDQFASFSQLTWLHLDHNQISTVKEDAFQGLYKLKELILSSNKIFYLPNTTFTQLINLQNLDLSFNQLSSLHPELFYGLRKLQTLHLRSNSLRTIPVRLFWDCRSLEFLDLSTNRLRSLARNGFAGLIKLRELHLEHNQLTKINFAHFLRLSSLHTLFLQWNKISNLTCGMDWTWSTLEKLDLTGNEIKAIDLTVFETMPNLKILLMDNNKLNSLDSKILNSLKSLTTVGLSGNLWECSPRVCALASWLGSFQGRWEHSILCHSPDHTQGEDILDAVHGFQLCWNLSTTVTAMATTYRDPTTEYTKISSSSYHVGDKEIPTTAGIAVTTEEHFPEPDNAIFTQRVITGTMALLFSFFFIIFIVFISRKCCPPTLRRIRQCSMIQNHRQLRSQTRLHMSNMSDQGPYNEYEPTHEGPFIIINGYGQCKCQQLPYKECEV |
